Results published in US20200353030A1 (BAR ILAN UNIVERSITY, published 2020).

B1: Fab antibody fragment AbD32836.1 (Fab, V domains shown)
VH: EVQLVESGGGLVKPGGSLRLSCAASGFTFSSYALSWVRQAPGKGLEWVGHIKSKTDGGATEYAAPVKGRFTISRDDSKNTLYLQMNSLKTEDTAVYYCARSYSEYIPLYAFAVWGQGTLVTVSS
VL: DIVLTQPPSVSGAPGQRVTISCSGSSSNIGSKYVSWYQQLPGTAPKLLIYYTSQRPSGVPDRFSGSKSGTSASLAITGLQAEDEADYYCYAWDSTSTSTVFGGGTKLTVLG
notes: HuCAL phage display Fab from BioRad AbD Serotec, raised against hRobo2 D4-5; also called Fab AbD32836.1; Fab #AbD32836.1
B2: hRobo2 receptor ectodomain D4-D5 N426M (residues 311-509 of human Robo2) (receptor)
chain: RAPPQFVVRPRDQIVAQGRTVTFPCETKGNPQPAVFWQKEGSQNLLFPNQPQQPNSRCSVSPTGDLTITNIQRSDAGYYICQALTVAGSILAKAQLEVTDVLTDRPPPIILQGPAMQTLAVDGTALLKCKATGDPLPVISWLKEGFTFPGRDPRATIQEQGTLQIKNLRISDTGTYTCVATSSSGETSWSAVLDVTESG
modifications: additional 655 Da glycosylation found by mass spectroscopy (site not stated)
notes: also called WT hRobo2 D4-5; hRobo2 D4-D5 fragment; not shown: N-terminal FLAG tag of the modified pFastBac (pK503-9) vector; C-terminal hexahistidine tag

Assays:
[1] = target: hRobo2 receptor ectodomain D4-D5 L394R mutant (human) (UniProt Q9HCK4); assay: sedimentation equilibrium analytical ultracentrifugation, self-association; total molecular weight of the monomer in the same row 24720 Da; the KD column of this row prints 'monomer'
[2] = target: hRobo2 receptor ectodomain D4-D5 F357R mutant (human) (UniProt Q9HCK4); assay: sedimentation equilibrium analytical ultracentrifugation, self-association; total molecular weight of the monomer in the same row 24686 Da; the KD column of this row prints 'monomer'
[3] = target: Robo2 of mouse dorsal root ganglion explants (mouse) (UniProt Q7TPD3); assay: cell-based or functional assay
Robo2 of mouse dorsal root ganglion explants (mouse), sequence (Q7TPD3 22-1470): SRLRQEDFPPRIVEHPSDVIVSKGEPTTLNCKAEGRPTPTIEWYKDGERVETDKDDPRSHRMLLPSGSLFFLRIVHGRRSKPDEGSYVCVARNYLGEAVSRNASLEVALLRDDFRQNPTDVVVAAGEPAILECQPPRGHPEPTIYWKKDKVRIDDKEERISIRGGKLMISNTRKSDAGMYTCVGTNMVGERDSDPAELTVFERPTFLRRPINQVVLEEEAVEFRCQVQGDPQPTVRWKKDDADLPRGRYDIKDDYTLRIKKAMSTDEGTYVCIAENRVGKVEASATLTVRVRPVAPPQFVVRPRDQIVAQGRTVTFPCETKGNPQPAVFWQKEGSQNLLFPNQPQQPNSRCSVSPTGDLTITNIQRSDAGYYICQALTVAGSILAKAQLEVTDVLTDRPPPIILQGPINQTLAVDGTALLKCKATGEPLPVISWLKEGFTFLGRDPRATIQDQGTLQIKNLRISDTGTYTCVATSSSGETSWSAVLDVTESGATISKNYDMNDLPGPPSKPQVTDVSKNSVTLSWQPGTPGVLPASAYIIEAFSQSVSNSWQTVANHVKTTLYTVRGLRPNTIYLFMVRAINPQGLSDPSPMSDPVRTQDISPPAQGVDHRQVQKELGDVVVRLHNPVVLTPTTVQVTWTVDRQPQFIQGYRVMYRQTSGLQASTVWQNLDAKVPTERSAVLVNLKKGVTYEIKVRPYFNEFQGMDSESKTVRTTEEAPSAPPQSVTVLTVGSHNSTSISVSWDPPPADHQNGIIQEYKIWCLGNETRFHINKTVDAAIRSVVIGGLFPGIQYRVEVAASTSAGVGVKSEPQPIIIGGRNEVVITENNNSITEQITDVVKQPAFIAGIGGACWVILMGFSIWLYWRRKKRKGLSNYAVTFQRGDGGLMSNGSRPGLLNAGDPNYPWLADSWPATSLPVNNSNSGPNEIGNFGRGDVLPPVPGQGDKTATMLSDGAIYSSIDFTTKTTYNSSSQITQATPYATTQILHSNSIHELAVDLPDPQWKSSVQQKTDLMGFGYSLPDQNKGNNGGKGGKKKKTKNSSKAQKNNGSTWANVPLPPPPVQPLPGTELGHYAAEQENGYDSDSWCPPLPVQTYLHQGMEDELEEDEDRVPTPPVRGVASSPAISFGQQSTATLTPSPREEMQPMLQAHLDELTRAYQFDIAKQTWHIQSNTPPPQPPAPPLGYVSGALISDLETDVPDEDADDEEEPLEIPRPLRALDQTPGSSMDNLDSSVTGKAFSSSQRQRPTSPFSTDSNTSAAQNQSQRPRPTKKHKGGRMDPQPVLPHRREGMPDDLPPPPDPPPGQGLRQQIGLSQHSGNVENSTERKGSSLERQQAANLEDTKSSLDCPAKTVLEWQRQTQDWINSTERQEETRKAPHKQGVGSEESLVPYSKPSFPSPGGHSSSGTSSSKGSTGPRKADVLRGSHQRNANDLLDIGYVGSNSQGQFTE

[4] = target: B2; assay: apparent KD; ELISA binding assay, method of the fit not stated
[5] = target: the molecule itself; assay: SE-AUC, monomer-dimer fit, homodimerization in solution (10, 20 and 30 µM)
Experimental: All the sedimentation equilibrium experiments with hRobo2 receptor ectodomain D4-D5 constructs were performed using an XL-I analytical ultracentrifuge (Beckman-Coulter Inc.), with a UV-visible optics detection system, using an An60Ti rotor and 12-mm double sector centerpieces. Sedimentation curves were recorded and analyzed at 280 nm while spinning at 20° C. at 20,000 rpm in 10, 12, 14, and 20 hour time points, to assure that equilibrium was reached. Three concentrations (10, 20, and 30 μM) of WT hRobo2 receptor ectodomain D4-D5 (N426M) were measured. The F357R and L394R mutants were measured and analyzed in 20 μM. The molecular weight of WT hRobo2 receptor ectodomain D4-D5 fragment (N426M) was determined by mass spectroscopy using the Orbitrap Fusion Lumos with electron transfer dissociation (ETD), with both instrument and chromatography set up especially for the analysis of intact proteins. The recombinant protein includes an N′ terminal FLAG and C′ terminal 6XHis tags. […] The sedimentation coefficient distributions were calculated using SEDFIT and SEDPHAT (Gabrielson et al., 2007; Schuck et al., 2014).
The oligomeric state of hRobo2 receptor ectodomain D4-D5 in solution was determined by sedimentation equilibrium analytical ultracentrifugation (SE-AUC) (FIGS. 8A-8C). […]

## hRobo2 receptor ectodomain D4-D5 L394R mutant (from UniProt Q9HCK4 311-509)
[1]
  global distribution (Da) sedimentation equilibrium: 24700 Da

## hRobo2 receptor ectodomain D4-D5 F357R mutant (from UniProt Q9HCK4 311-509)
[2]
  global distribution (Da) sedimentation equilibrium: 24100 Da

## hSlitN2 (from UniProt O94813 31-1121) (ligand)
[3]
  growth cone collapse of DRG explants 10 min after 5 nM SlitN2, without Fab: 60%

## B1
[4]
  Kd: 0.18 µM

## B2
[5]
  Kd: 16.9 µM
